Substrate: CC(=O)N[C@H]1[C@@H](OP(=O)(O)OP(=O)(O)OC[C@H]2O[C@@H](n3ccc(=O)[nH]c3=O)[C@H](O)[C@@H]2O)O[C@H](CO)[C@@H](O)[C@@H]1O
Assay: MurA activity/inhibition assay (phosphate release coupled to PNPase cleavage of fluorescent 7-methylguanosine)
Type: biochemical, E. coli
Settings: other: 0.5 µM MurA, 1 mM phosphoenolpyruvate; best fit parameter of global fit; same as reported in literature; pH 7.5
Text: • (a) MurA performs the first step of UDP-muramic acid biosynthesis. After sequential binding of UNAG and phosphoenolpyruvate, a tetrahedral intermediate is formed that yields enolpyruvyl-UNAG after cleavage of inorganic phosphate. UNAG-3P most likely mimics this tetrahedral intermediate and thereby inhibits MurA catalysis by a competitive binding mechanism. (b) Determination of the Ki of UNAG-3P for MurA. Enolpyruvyl-UNAG formation catalyzed by MurA from E. coli in presence of PEP and UNAG-3P and varying UNAG concentrations under steady state conditions. MurA enzyme kinetics were followed by coupling the reaction to phosphate dependent cleavage of fluorescent 7-methylguanosine by nucleoside phosphorylase resulting in a strong decrease of the fluorescence at 400 nm (λexc = 300 nm). The UNAG-3P concentrations for each saturation curve were 0 µM (●), 15 µM (□) and 30 µM (Δ). A Lineweaver-Burk plot is shown as inset.
The enolpyruvyl activity of E. coli MurA was monitored by coupling phosphate release to cleavage of fluorescent 7-methylguanosine (Sigma) by bacterial purine-nucleoside phosphorylase (PNPase) (Sigma). […] The reactions were monitored by the decrease in fluorescence at 400 nm with excitation set to 300 nm in a FluoroMax-3 spectrofluorometer (HORIBA Jobin Yvon) with excitation and emission bandwidths of 5 nm. […]

B1: E. coli MurA (Escherichia coli K-12) (protein)
chain: MDKFRVQGPTKLQGEVTISGAKNAALPILFAALLAEEPVEIQNVPKLKDVDTSMKLLSQLGAKVERNGSVHIDARDVNVFCAPYDLVKTMRASIWALGPLVARFGQGQVSLPGGCTIGARPVDLHISGLEQLGATIKLEEGYVKASVDGRLKGAHIVMDKVSVGATVTIMCAATLAEGTTIIENAAREPEIVDTANFLITLGAKISGQGTDRIVIEGVERLGGGVYRVLPDRIETGTFLVAAAISRGKIICRNAQPDTLDAVLAKLRDAGADIEVGEDWISLDMHGKRPKAVNVRTAPHPAFPTDMQAQFTLLNLVAEGTGFITETVFENRFMHVPELSRMGAHAEIESNTVICHGVEKLSGAQVMATDLRASASLVLAGCIAEGTTVVDRIYHIDRGYERIEDKLRALGANIERVKGE
Km: 15 µM

From patent publication EP2433948A1, “Use of a new class of nucleotide sugar as antibiotic or cytostatic agent” (Max-Planck-Gesellschaft zur Förderung der Wissenschaften …, priority 2010, dated 2012)
